Source: the supplement of paper PMC5998384

Legend:
HeLa Kyoto [1] = assay: thermal stability score vs G1/S (z-score of summed log2 fold changes over temperatures); higher = more thermally stable than in G1/S
HeLa Kyoto [2] = assay: solubility in G1/S (NP-40 vs SDS abundance) (log2 ratio); higher = more soluble; settings: cell cycle stage: G1/S
HeLa Kyoto [3] = assay: melting temperature (median over replicates), in situ; higher = more thermally stable
HeLa Kyoto [4] = assay: solubility change mitosis vs G1/S (difference of NP-40 vs SDS log2 ratios) (log2 ratio difference); higher = more soluble in mitosis
[5] = cell cycle stage: early G1 (4.5 h after nocodazole release)
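Throughout, for melting temperature (median over replicates), in situ: HeLa Kyoto cells synchronized by double thymidine or nocodazole block, proteins quantified by TMT10plex mass spectrometry, three independent biological replicates.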
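Throughout, for solubility change mitosis vs G1/S (difference of NP-40 vs SDS log2 ratios): synchronized HeLa Kyoto cells (double thymidine block for G1/S, nocodazole release for mitosis), protein amounts in NP-40 versus SDS lysates quantified by mass spectrometry, three biological replicates.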
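Throughout, for solubility in G1/S (NP-40 vs SDS abundance): HeLa Kyoto cells arrested at G1/S by double thymidine block, proteins quantified by TMT10plex mass spectrometry in mild NP-40 versus SDS extracts, three biological replicates.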
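Throughout, for thermal stability score vs G1/S (z-score of summed log2 fold changes over temperatures): synchronized HeLa Kyoto cells, proteins quantified by TMT10plex mass spectrometry, three biological replicates, mitosis taken 0.5 h after nocodazole release, G1/S directly after double thymidine block.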

Question: Which results are given for “MADNEKLDNQRLKNFKNKGRDLETMRRQRNEVVVELRKNKRDEHLLKRRNVPHEDICEDSDIDGDYRVQNTSLEAIVQNASSDNQGIQLSAVQAARKLLSSDRNPPIDDLIKSGILPILVHCLERDDNPSLQFEAAWALTNIASGTSEQTQAVVQSNAVPLFLRLLHSPHQNVCEQAVWALGNIIGDGPQCRDYVISLGVVKPLLSFISPSIPITFLRNVTWVMVNLCRHKDPPPPMETIQEILPALCVLIHHTDVNILVDTVWALSYLTDAGNEQIQMVIDSGIVPHLVPLLSHQEVKVQTAALRAVGNIVTGTDEQTQVVLNCDALSHFPALLTHPKEKINKEAVWFLSNITAGNQQQVQAVIDANLVPMIIHLLDKGDFGTQKEAAWAISNLTISGRKDQVAYLIQQNVIPPFCNLLTVKDAQVVQVVLDGLSNILKMAEDEAETIGNLIEECGGLEKIEQLQNHENEDIYKLAYEIIDQFFSSDDIDEDPSLVPEAIQGGTFGFNSSANVPTEGFQF [KPNA4]”?
Answer: thermal stability score (HeLa Kyoto [1]; [5]): -0.466; thermal stability score (HeLa Kyoto [1]; cell cycle stage: mitosis): -0.221; solubility in G1/S (log2) (HeLa Kyoto [2]): 0.0932; melting temperature (HeLa Kyoto [3]; cell cycle stage: G1/S): 52.3 °C; melting temperature (HeLa Kyoto [3]; cell cycle stage: mitosis): 51.9 °C; solubility change mitosis (log2) (HeLa Kyoto [4]): -0.0591

Question: “MSSARFDSSDRSAWYMGPVSRQEAQTRLQGQRHGMFLVRDSSTCPGDYVLSVSENSRVSHYIINSLPNRRFKIGDQEFDHLPALLEFYKIHYLDTTTLIEPAPRYPSPPMGSVSAPNLPTAEDNLEYVRTLYDFPGNDAEDLPFKKGEILVIIEKPEEQWWSARNKDGRVGMIPVPYVEKLVRSSPHGKHGNRNSNSYGIPEPAHAYAQPQTTTPLPAVSGSPGAAITPLPSTQNGPVFAKAIQKRVPCAYDKTALALEVGDIVKVTRMNINGQWEGEVNGRKGLFPFTHVKIFDPQNPDENE [CRKL]” was tested. Which thermal stability score (HeLa Kyoto [1]; [5]) did it give?
Answer: -0.327

Question: And the thermal stability score (HeLa Kyoto [1]; cell cycle stage: mitosis)?
Answer: -0.418

Question: And the “solubility in G1/S (log2)” value (HeLa Kyoto [2])?
Answer: 0.543

Question: What about the melting temperature (HeLa Kyoto [3]; cell cycle stage: G1/S) of the same sequence?
Answer: 53 °C

Question: What about the melting temperature (HeLa Kyoto [3]; cell cycle stage: mitosis) of the same sequence?
Answer: 53.4 °C

Question: What about the “solubility change mitosis (log2)” value (HeLa Kyoto [4]) of the same sequence?
Answer: 0.0605

Question: Which thermal stability score (HeLa Kyoto [1]; [5]) does the source give for “MALDGIRMPDGCYADGTWELSVHVTDLNRDVTLRVTGEVHIGGVMLKLVEKLDVKKDWSDHALWWEKKRTWLLKTHWTLDKYGIQADAKLQFTPQHKLLRLQLPNMKYVKVKVNFSDRVFKAVSDICKTFNIRHPEELSLLKKPRDPTKKKKKKLDDQSEDEALELEGPLITPGSGSIYSSPGLYSKTMTPTYDAHDGSPLSPTSAWFGDSALSEGNPGILAVSQPITSPEILAKMFKPQALLDKAKINQGWLDSSRSLMEQDVKENEALLLRFKYYSFFDLNPKYDAIRINQLYEQAKWAILLEEIECTEEEMMMFAALQYHINKLSIMTSENHLNNSDKEVDEVDAALSDLEITLEGGKTSTILGDITSIPELADYIKVFKPKKLTLKGYKQYWCTFKDTSISCYKSKEESSGTPAHQMNLRGCEVTPDVNISGQKFNIKLLIPVAEGMNEIWLRCDNEKQYAHWMAACRLASKGKTMADSSYNLEVQNILSFLKMQHLNPDPQLIPEQITTDITPECLVSPRYLKKYKNKQITARILEAHQNVAQMSLIEAKMRFIQAWQSLPEFGITHFIARFQGGKKEELIGIAYNRLIRMDASTGDAIKTWRFSNMKQWNVNWEIKMVTVEFADEVRLSFICTEVDCKVVHEFIGGYIFLSTRAKDQNESLDEEMFYKLTSGWV [FERMT2]” here?
Answer: -0.389

Question: What about the thermal stability score (HeLa Kyoto [1]; cell cycle stage: mitosis) of the same sequence?
Answer: 0.267

Question: And the “solubility in G1/S (log2)” value (HeLa Kyoto [2])?
Answer: -0.166

Question: And the melting temperature (HeLa Kyoto [3]; cell cycle stage: G1/S)?
Answer: 54.6 °C

Question: What about the melting temperature (HeLa Kyoto [3]; cell cycle stage: mitosis) of the same sequence?
Answer: 55.2 °C

Question: And the “solubility change mitosis (log2)” value (HeLa Kyoto [4])?
Answer: -0.119

Question: Which thermal stability score (HeLa Kyoto [1]; [5]) does the source give for “MAALAPLPPLPAQFKSIQHHLRTAQEHDKRDPVVAYYCRLYAMQTGMKIDSKTPECRKFLSKLMDQLEALKKQLGDNEAITQEIVGCAHLENYALKMFLYADNEDRAGRFHKNMIKSFYTASLLIDVITVFGELTDENVKHRKYARWKATYIHNCLKNGETPQAGPVGIEEDNDIEENEDAGAASLPTQPTQPSSSSTYDPSNMPSGNYTGIQIPPGAHAPANTPAEVPHSTGVASNTIQPTPQTIPAIDPALFNTISQGDVRLTPEDFARAQKYCKYAGSALQYEDVSTAVQNLQKALKLLTTGRE [VTA1]” here?
Answer: -1.99

Question: And the thermal stability score (HeLa Kyoto [1]; cell cycle stage: mitosis)?
Answer: -2.34

Question: And the “solubility in G1/S (log2)” value (HeLa Kyoto [2])?
Answer: 0.0799

Question: What about the melting temperature (HeLa Kyoto [3]; cell cycle stage: G1/S) of the same sequence?
Answer: 50.9 °C

Question: And the melting temperature (HeLa Kyoto [3]; cell cycle stage: mitosis)?
Answer: 50.4 °C

Question: What about the “solubility change mitosis (log2)” value (HeLa Kyoto [4]) of the same sequence?
Answer: 0.325

Question: Which results are given for “MVSPATRKSLPKVKAMDFITSTAILPLLFGCLGVFGLFRLLQWVRGKAYLRNAVVVITGATSGLGKECAKVFYAAGAKLVLCGRNGGALEELIRELTASHATKVQTHKPYLVTFDLTDSGAIVAAAAEILQCFGYVDILVNNAGISYRGTIMDTTVDVDKRVMETNYFGPVALTKALLPSMIKRRQGHIVAISSIQGKMSIPFRSAYAASKHATQAFFDCLRAEMEQYEIEVTVISPGYIHTNLSVNAITADGSRYGVMDTTTAQGRSPVEVAQDVLAAVGKKKKDVILADLLPSLAVYLRTLAPGLFFSLMASRARKERKSKNS [DHRS7B]”?
Answer: thermal stability score (HeLa Kyoto [1]; [5]): -0.951; thermal stability score (HeLa Kyoto [1]; cell cycle stage: mitosis): -0.984; solubility in G1/S (log2) (HeLa Kyoto [2]): -0.22; melting temperature (HeLa Kyoto [3]; cell cycle stage: G1/S): 51.6 °C; melting temperature (HeLa Kyoto [3]; cell cycle stage: mitosis): 51.4 °C; solubility change mitosis (log2) (HeLa Kyoto [4]): -0.121
